The source of these data is US6858425.

This series concerns mannose 6-phosphate receptors on the cell surface of fibroblasts.

Turning to “recombinant human acid α-glucosidase produced in the milk of transgenic mice”, the “restoration of acid α-glucosidase activity in GSD II patient fibroblasts after 20 hours with the enzyme” value is on record as “Under these conditions acid α-glucosidase of the patient fibroblasts was restored to the level measured in fibroblasts from healthy individuals” and the “restoration of acid α-glucosidase activity in GSD II patient fibroblasts, with 5 mM mannose 6-phosphate as a competitor” value is listed as “Restoration by α-glucosidase form milk was inhibited by 5 mM mannose 6-phosphate”.
